In patent publication US20200095340A1:
Changes are numbered by the printed parent chain.

B1: anti-DLL3 trispecific protein, DLL3 binder 4B08 (protein, part only; not given: CD3 fragment and albumin sdAb, part only)
chain, part: EVQLVESGGGLVQPGGSLTLSCAASGSSVSFMSMAWYRQAPGKKRELVAGISADGSTDYIASVKGRFTISRDNAKNSVYLQMNSLRAEDTAVYYCYAYRWTTRSTYWGQGTLVTVSSGGGGSGGGSGGGGSGGGSHHHHHH
B2: anti-DLL3 trispecific protein, DLL3 binder 3F06 (protein, part only; not given: anti-CD3 fragment and anti-albumin sdAb, part only)
chain, part: B1 chain, part with S28R, M32L, D58S, A61D, T101A, S104Y
B3: anti-DLL3 trispecific protein, DLL3 binder 3D01 (protein, part only; not given: CD3 binder and albumin binder, part only)
chain, part: B1 chain, part with M32L, A53R, A61D, T101I, S104Y
B4: anti-DLL3 trispecific protein, DLL3 binder 3B01 (protein, part only; not given: anti-CD3 fragment and anti-albumin sdAb, part only)
chain, part: B1 chain, part with M32L, A53G, A61D, S104Y
B5: anti-DLL3 trispecific protein, DLL3 binder 4A01 (protein, part only; not given: CD3 binder and albumin binder, part only)
chain, part: B1 chain, part with S30R, M32L, A53Q, A61D, T101R, S104Y
B6: anti-DLL3 trispecific protein, DLL3 binder 3C06 (protein, part only; not given: CD3 binder and albumin binder, part only)
chain, part: B1 chain, part with S27T, M32L, M34I, T101R, S104Y
B7: anti-DLL3 trispecific protein, DLL3 binder 3E09 (protein, part only; not given: CD3 binder and albumin binder, part only)
chain, part: B1 chain, part with S30R, M32L, A53R, A61D, T101S, S104Y
B8: anti-DLL3 trispecific protein, DLL3 binder 4B01 (protein, part only; not given: anti-CD3 and anti-albumin domains, part only)
chain, part: B1 chain, part with S30K, M32L, A53R, A61D, S104F
B9: anti-DLL3 trispecific protein, DLL3 binder 4E06 (protein, part only; not given: anti-CD3 fragment and anti-albumin domain, part only)
chain, part: B1 chain, part with S27T, M32L, A61R, S104L
B10: anti-DLL3 trispecific protein, DLL3 binder 2B010 (protein, part only; not given: CD3 fragment and albumin sdAb, part only)
chain, part: EVQLVESGGGLVQPGGSLTLSCVASGSTSSRNAMGWYRRAPGKQRELVAGISSDGSKLYLDSVKGRFTISRDNAKNSVYLQMNSLRAEDTAVYYCYYFRTVLGSSMRYWGQGTLVTVSSGGGGSGGGSGGGGSGGGSHHHHHH
B11: anti-DLL3 trispecific protein, DLL3 binder 2A09 (protein, part only; not given: anti-CD3 and anti-albumin domains, part only)
chain, part: B10 chain, part with D54N, L58V, L60S, L102S, R107S
B12: anti-DLL3 trispecific protein, DLL3 binder 1H02 (protein, part only; not given: anti-CD3 fragment and anti-albumin domain, part only)
chain, part: B10 chain, part with T28K, R31I, V48A, L58V, L60A, D61Q, V101S, L102S
B13: anti-DLL3 trispecific protein, DLL3 binder 2B01 (protein, part only; not given: CD3 fragment and albumin sdAb, part only)
chain, part: B10 chain, part with S30L, R31I, L58V, L60A, T100H, L102S
B14: anti-DLL3 trispecific protein, DLL3 binder 2G04 (protein, part only; not given: anti-CD3 fragment and anti-albumin sdAb, part only)
chain, part: B10 chain, part with R31I, K57L, L58V, L60A, T100I, V101L, L102S
B15: anti-DLL3 trispecific protein, DLL3 binder 1D08 (protein, part only; not given: CD3 binder and albumin binder, part only)
chain, part: B10 chain, part with S27L, R31I, L58V, L60A, T100M, L102S
B16: anti-DLL3 trispecific protein, DLL3 binder 1G09 (protein, part only; not given: anti-CD3 fragment and anti-albumin domain, part only)
chain, part: B10 chain, part with R31I, L58V, L60A, L102S, G103K
B17: anti-DLL3 trispecific protein, DLL3 binder 1B04 (protein, part only; not given: CD3 fragment and albumin sdAb, part only)
chain, part: B10 chain, part with S27T, R31I, K57L, L58V, L60A, T100I, L102R
B18: anti-DLL3 trispecific protein, DLL3 binder 1B02 (protein, part only; not given: anti-CD3 fragment and anti-albumin sdAb, part only)
chain, part: B10 chain, part with R31I, L58I, L60A, L102S
B19: anti-DLL3 trispecific protein, DLL3 binder 2F06 (protein, part only; not given: CD3 fragment and albumin sdAb, part only)
chain, part: B10 chain, part with R31I, M34Y, K57A, L58V, L60A, V101H, L102S
B20: anti-DLL3 trispecific protein, DLL3 binder 1F04 (protein, part only; not given: anti-CD3 and anti-albumin domains, part only)
chain, part: B10 chain, part with S27G, R31I, L58V, L60S, L102S, M106A
B21: anti-DLL3 trispecific protein 4A02 (protein, part only; not given: anti-CD3 fragment and anti-albumin domain, part only)
chain, part: B1 chain, part with S30R, M32L, A53N, A61D, T101K, S104Y
B22: anti-DLL3 trispecific protein 3H01 (protein, part only; not given: CD3 binder and albumin binder, part only)
chain, part: B1 chain, part with A23V, S30K, M32L, A53G, D58T, A61D, S104R
B23: anti-DLL3 trispecific protein 3H03 (protein, part only; not given: anti-CD3 fragment and anti-albumin domain, part only)
chain, part: B1 chain, part with S30R, M32L, A53T, A61D, Y98L, S104Y
B24: anti-DLL3 trispecific protein 4A07 (protein, part only; not given: CD3 binder and albumin binder, part only)
chain, part: B1 chain, part with S28K, M32L, D58L, A61D, S104Y, T105R
B25: anti-DLL3 trispecific protein 4F08 (protein, part only; not given: anti-CD3 and anti-albumin domains, part only)
chain, part: B1 chain, part with S28K, M32L, D58A, A61D, T101R, S104Y
B26: anti-DLL3 trispecific protein 4A05 (protein, part only; not given: anti-CD3 and anti-albumin domains, part only)
chain, part: B1 chain, part with M32L, M34L, A61D, T101K, S104R
B27: anti-DLL3 trispecific protein 4D010 (protein, part only; not given: anti-CD3 fragment and anti-albumin sdAb, part only)
chain, part: B1 chain, part with M32L, A61H, T101R, S104Y
B28: anti-DLL3 trispecific protein 4G05 (protein, part only; not given: CD3 fragment and albumin sdAb, part only)
chain, part: B1 chain, part with F31I, M32L, D58I, A61D, T101H, S104Y
B29: anti-DLL3 trispecific protein 3C02 (protein, part only; not given: anti-CD3 and anti-albumin domains, part only)
chain, part: B1 chain, part with S30R, M32L, D58I, A61D, T101R, S104Y
B30: anti-DLL3 trispecific protein 4A09 (protein, part only; not given: anti-CD3 and anti-albumin domains, part only)
chain, part: B1 chain, part with S30K, M32L, A61G, S104V
B31: anti-DLL3 trispecific protein 3B011 (protein, part only; not given: anti-CD3 and anti-albumin domains, part only)
chain, part: B1 chain, part with M32L, T57A, A61D, T101V, S104Y
B32: anti-DLL3 trispecific protein 3A04 (protein, part only; not given: CD3 binder and albumin binder, part only)
chain, part: B1 chain, part with S28Q, M32L, A53R, A61D, S104Y, T105I
B33: anti-DLL3 trispecific protein 4E010 (protein, part only; not given: anti-CD3 and anti-albumin domains, part only)
chain, part: B1 chain, part with S30K, M32L, A61D, T101R, S104Y
B34: anti-DLL3 trispecific protein 4E09 (protein, part only; not given: anti-CD3 fragment and anti-albumin sdAb, part only)
chain, part: B1 chain, part with M32L, M34S, D58L, A61D
B35: anti-DLL3 trispecific protein 4F04 (protein, part only; not given: anti-CD3 fragment and anti-albumin sdAb, part only)
chain, part: B1 chain, part with G26R, M32L, A53T, A61D, T101L, S104Y
B36: anti-DLL3 trispecific protein 4G010 (protein, part only; not given: anti-CD3 and anti-albumin domains, part only)
chain, part: B1 chain, part with S27H, M32L, T101S, S104Y
B37: anti-DLL3 trispecific protein 2F01 (protein, part only; not given: anti-CD3 and anti-albumin domains, part only)
chain, part: B10 chain, part with R31I, L58V, L60S, T100L, L102S
B38: anti-DLL3 trispecific protein 1F01 (protein, part only; not given: CD3 fragment and albumin sdAb, part only)
chain, part: B10 chain, part with R31I, L58V, L60G, L102S, G103R
B39: anti-DLL3 trispecific protein 1E08 (protein, part only; not given: anti-CD3 fragment and anti-albumin sdAb, part only)
chain, part: B10 chain, part with S27K, R31I, L58V, Y59I, L60A
B40: anti-DLL3 trispecific protein 1D04 (protein, part only; not given: CD3 fragment and albumin sdAb, part only)
chain, part: B10 chain, part with R31K, L58V, L60A, L102S, S104A
B41: anti-DLL3 trispecific protein 1D012 (protein, part only; not given: anti-CD3 fragment and anti-albumin domain, part only)
chain, part: B10 chain, part with S30H, R31I, K57R, L58V, L60A, L102S, S104G
B42: anti-DLL3 trispecific protein 2F02 (protein, part only; not given: anti-CD3 fragment and anti-albumin sdAb, part only)
chain, part: B10 chain, part with R31I, M34V, L58V, L60A, D61G, L102S, S105Y

Molecular target: biotinylated human DLL3 protein expressed as a human IgG1 fusion protein (human) (UniProt Q9NYJ7)
Assay: Octet, biotinylated human DLL3-IgG1 fusion on streptavidin tips, single 50 nM, conditioned medium (relative KD)
Target sequence in this assay (Q9NYJ7 27-492): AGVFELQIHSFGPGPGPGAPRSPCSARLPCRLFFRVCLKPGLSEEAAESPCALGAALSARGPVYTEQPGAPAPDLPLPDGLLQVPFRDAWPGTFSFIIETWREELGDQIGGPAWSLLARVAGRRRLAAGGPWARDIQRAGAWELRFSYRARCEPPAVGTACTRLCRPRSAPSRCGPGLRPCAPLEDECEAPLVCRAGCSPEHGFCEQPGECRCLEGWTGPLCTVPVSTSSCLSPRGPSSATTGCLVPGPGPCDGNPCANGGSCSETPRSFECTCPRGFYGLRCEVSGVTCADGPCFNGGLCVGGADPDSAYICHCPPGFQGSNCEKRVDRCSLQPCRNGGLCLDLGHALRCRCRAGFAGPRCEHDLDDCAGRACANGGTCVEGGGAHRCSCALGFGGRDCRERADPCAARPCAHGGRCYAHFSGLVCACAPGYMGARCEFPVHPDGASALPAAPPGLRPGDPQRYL

Kd [nM] | Binder
10 | B1
9.9 | B2
10 | B3
10 | B4
10 | B5
10 | B6
10 | B7
11 | B8
10 | B9
10 | B10
10 | B11
10 | B12
10 | B13
11 | B14
10 | B15
10 | B16
11 | B17
11 | B18
10 | B19
10 | B20

Molecular target: biotinylated human DLL3 protein expressed as a human IgG1 fusion protein (human) (UniProt Q9NYJ7)
Assay: Octet BLI; biotinylated huDLL3-IgG1 fusion on streptavidin tips; single 50 nM; conditioned medium
Target sequence in this assay (Q9NYJ7 other isoform, or with tags, fused parts or gaps): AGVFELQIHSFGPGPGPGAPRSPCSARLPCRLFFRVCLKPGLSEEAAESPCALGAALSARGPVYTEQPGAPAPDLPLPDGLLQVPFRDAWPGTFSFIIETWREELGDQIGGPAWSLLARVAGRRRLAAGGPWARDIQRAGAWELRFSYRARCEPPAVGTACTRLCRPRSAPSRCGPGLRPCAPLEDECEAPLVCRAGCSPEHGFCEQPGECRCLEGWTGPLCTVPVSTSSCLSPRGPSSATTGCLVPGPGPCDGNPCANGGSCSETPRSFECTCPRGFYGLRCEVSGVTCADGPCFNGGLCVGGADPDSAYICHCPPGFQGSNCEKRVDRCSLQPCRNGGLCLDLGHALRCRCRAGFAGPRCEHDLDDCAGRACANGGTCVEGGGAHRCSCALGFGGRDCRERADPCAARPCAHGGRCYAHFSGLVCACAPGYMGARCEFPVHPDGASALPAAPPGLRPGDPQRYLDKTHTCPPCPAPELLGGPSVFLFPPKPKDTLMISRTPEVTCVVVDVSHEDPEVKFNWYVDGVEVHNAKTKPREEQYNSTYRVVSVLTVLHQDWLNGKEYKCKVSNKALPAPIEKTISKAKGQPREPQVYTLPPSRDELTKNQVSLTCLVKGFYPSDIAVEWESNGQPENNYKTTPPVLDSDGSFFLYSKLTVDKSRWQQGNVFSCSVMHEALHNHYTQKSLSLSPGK

Kd [nM] | Binder
9 | B21
9 | B22
9.9 | B23
9.8 | B24
9 | B25
9.4 | B26
9.9 | B27
9.7 | B28
9.1 | B29
9 | B30
9 | B31
9.2 | B32
9 | B33
9.1 | B34
9.8 | B35
9.9 | B36
9.2 | B37
9.4 | B38
9.4 | B39
9.7 | B40
9.3 | B41
9.6 | B42
